Values belong to the binder of their own block, whether it stands above or below them.
How the values were obtained:
[1] = target: T1, hFzd5 CRD-Xtal (hFzd5_Q13467_27-152) (human, UniProt Q13467 27-152); assay: size-exclusion chromatography of the Fzd CRD_Xtal:Fab mixture
T1 construct: complex incubated with carboxypeptidase A and B before crystallisation
T1 sequence: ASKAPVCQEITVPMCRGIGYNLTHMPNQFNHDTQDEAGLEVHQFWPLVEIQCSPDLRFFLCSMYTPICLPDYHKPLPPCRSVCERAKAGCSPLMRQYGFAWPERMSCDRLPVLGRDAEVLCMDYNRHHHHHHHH
Protocol: Purfied Fzd CRD_Xtal and Fab binders were mixed at 1.1:1 molar ratio (little excess of the smaller molecular weight protein), and incubated with carboxy-peptidase A and B at a w/w ratio of 100:1 for over-night at 4° C. Complex formation was confirmed by observation of a single-major peak on SuperdexS200 Increase (10/300 GL) column pre-equilibrated in HBS. Fractions containing complexes were further checked by SDS-PAGE, and concentrated to a range from 10 to 55 mg/mL for crystallization screens. Initial crystallization screen, using commercially available MCSG1, MCSG2, MCSG3, MCSG4, PACT (Molecular Dimensions), PEGs I, and PEGs II (Qiagen) screen, and optimization by grid-screens or microseed matrix screen [MMS; Microseed matrix screening for optimization in protein crystallization: what have we learned? D'Arcy, A., Bergfors, T., Cowan-Jacob S. W., and Marshd, M. Acta Cryst. F70, 1117-1126 (2014)]. were performed using Mosquito (TTP LabTech) liquid handler, and equilibrated at 18° C. inside an EchoTherm incubator (Torrey Pines Scientific). 96-well plate crystal screening experiments were periodically monitored manually via a DiscoveryV20 stereomicroscope (Zeiss), and crystals were frozen for data collection by plunging into liquid nitrogen in the presence of various cryo-protectants (typically 15 to 30% v/v of glycerol or ethyleneglycol). X-ray diffraction datasets were collected at the Berkeley Center for Structural Biology at the Advanced Light Source (ALS), Berkeley CA, and processed with XDS [Kabsch, W. XDS. Acta Cryst. D66, 125-132 (2010)], and xdsme [Legrand, P. XDSME: XDS Made Easier (2017) GitHub repository, https://github-.com/legrandp/xdsme DOI 10.5281/zenodo.837885]. programs. Structure of Fzd:Fab complexes were determined by molecular replacement method using Phaser with constant and variable domains of related Fabs are template [Phaser crystallographic software. A. J. McCoy, R. W. Grosse-Kunstleve, P. D. Adams, M. D. Winn, L. C. Storoni, and R. J. Read. J Appl Crystallogr 40, 658-674 (2007)], followed by refinement and validation by MolProbity as implemented in Phenix [PHENIX: a comprehensive Python-based system for macromolecular structure solution.

[2] = target: T2, Fzd5 (UniProt Q13467 27-152, limits assumed); assay: phage ELISA on immobilised antigen
T2 construct: immobilised target antigen of the phage ELISA and the Fzd named in specificity sentences; also called Frizzled 5; Fz5
T2 sequence (looked up): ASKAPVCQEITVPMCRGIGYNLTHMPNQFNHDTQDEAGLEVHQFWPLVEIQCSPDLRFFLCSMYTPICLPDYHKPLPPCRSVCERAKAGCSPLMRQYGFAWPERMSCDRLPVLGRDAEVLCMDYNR
Protocol: (§1) Detection of bound phage was determined […] by turnover of TMB substrate (Thermo Fisher Scientific, Waltham, MA) at […] by anti-M13-HRP antibody (GE Healthcare, Pittsburgh, PA). Clones were identified as binding to a Fzd receptor when the fold OD 450 nm over background was greater than a threshold level.

[3] = target: T3, Fzd1 cysteine rich domain (CRD), C-terminally biotinylated (human, UniProt Q9UP38 101-230); assay: BLI; *=Kd <=100 nM
Protocol: (§2) Binding kinetics of antibody fragments to a variety of Fzd cysteine rich domain (CRD) protein targets (Fzd1, Fzd2, Fzd3, Fzd4, Fzd5, Fzd6, Fzd7, Fzd8, Fzd9 and/or Fzd10 CRDs) was determined by bio-layer interferometry (BLI) using Octet Red 96 (PALL ForteBio, Fremont, CA) instruments at 30° C., 1000 rpm with streptavidin (SA) biosensors. C-terminal biotinylated Fzd CRD recombinant protein was diluted to 20 nM in the running buffer (PBS, 0.05% Tween-20, 0.5% BSA, pH 7.2) and captured to the SA biosensor until coupling length reached 0.2 nm. Following capture of the Fzd CRD, the SA biosensor with captured biotinylated-Fzd CRD was dipped into wells containing the relevant antibody fragment at […] (0, 1.37, 4.12, 12.4, 37, 111.1, 333.3, 1000 nM) in running buffer, plus a well with only running buffer as a reference channel. […] was determined by global fitting, 1:1 binding model according to manufacturer recommended settings.
(§3) One antibody fragment, clone 001S-A04, was selected for alanine-scanning mutagenesis of CDRs, and the respective Fzd1 binding affinities of the various mutants were determined by Octet BLI as described in Example 1.

[4] = target: T4, Fzd7 cysteine rich domain (CRD), C-terminally biotinylated (human, UniProt O75084 36-165); assay: BLI; *=Kd <100 nM
Protocol: as §2
(§4) Table 1B provides clone IDs, the sequence identifier number of the antibody heavy chain fragment and/or light chain fragment, if present, for illustrative clones. In certain embodiments, the Fzd binding domain is an Fab or was derived from an Fab, so the heavy chain of Table 1B includes VH and CH1 sequence, but not CH2 or CH3 sequences. In certain embodiments, the Fzd binding domain is a VHH or sdAb® or was derived from a VHH or sdAb, so Table 1B includes the VHH domain. […] The Kd values were determined by BLI as described above. Blank entries denote that the binding to the specific Fzd receptor has not yet been determined. The entry of "n.b." indicates no binding.

[5] = target: T3, Fzd1 cysteine rich domain (CRD), …; assay: BLI; *=Kd <100 nM
Protocol: as §2, §4

[6] = target: Fzd2 cysteine rich domain (CRD), C-terminally biotinylated (human, UniProt Q14332 24-155); assay: BLI; *=Kd <100 nM
Protocol: as §2, §4

[7] = target: T3, Fzd1 cysteine rich domain (CRD), …; assay: BLI
Protocol: as §2, §3

[8] = target: T4, Fzd7 cysteine rich domain (CRD), …; assay: summary in Table 3; method not given there
[9] = target: T3, Fzd1 cysteine rich domain (CRD), …; assay: summary in Table 3; method not given there
[10] = target: T5, Frizzled 3 (human, UniProt Q9NPG1 23-148, limits assumed); assay: phage ELISA on immobilised antigen (initial binding)
T5 construct: Target antigen immobilised on plates in the phage ELISA; also called Fzd3; Fz3
T5 sequence (looked up): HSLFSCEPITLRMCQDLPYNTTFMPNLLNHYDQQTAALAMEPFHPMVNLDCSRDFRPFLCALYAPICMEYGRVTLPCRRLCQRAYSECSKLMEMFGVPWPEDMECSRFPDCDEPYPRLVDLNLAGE
Protocol: as §1

B1: 004S-E05 Fab (Fab, V domains shown)
VH: EVQLVESGGGLVQPGGSLRLSCAASGFTFSTYEMNWVRQAPGKGLEWVSGVSWNGSRTHYVDSVKGRFTISRDNSKNTLYLQLNSLRAEDTAVYYCARGQSEKWWSGLYGMDVWGQGTTVTVSS
VL: DIQMTQSPSSLSASVGDRVTITCRASQGISSALAWYQQKPGKAPKLLIYAASALQSGVPSRFSGSGSGTDFTLTISSLQPEDFATYYCQQTYSTPRTFGPGTKVDIKR
notes: Fab chains as crystallised (heavy chain with hexa-histidine tag); also called 004S-E050
binding result [1]: binds
binding result [2]: binds

B2: 001S-A04 (Fab, V domains shown)
VH: EVQLVQSGAEVKKPGASVKVSCKASGYTFTSYGISWVRQAPGQGLEWMGWISAYNGNTNYAQKLQGRVTMTTDTSTSTAYMELRSLRSDDTAVYYCASSKEKATYYYGMDVWGQGTTVTVSS
VL: QAVVLQEPSLSVSPGGTVTLTCGLSSGSVSTNYYPSWYQQTPGQAPRTLIYYTNTRSSDVPERFSGSIVGNKAALTITGAQPDDESVYFCLLYLGRGIWVFGGGTKLTVLG
notes: also called R2M3; WT
KD [3]: ≤ 100 nM
Kd [4]: < 100 nM
Kd [5]: < 100 nM
Kd [6]: < 100 nM

B4: R2M9 (003S-E07) Fab (Fab, V domains shown)
VH: QVQLVQSGAEVKKPGSSVKVSCKASGYTFTNNFMHWVRQAPGQGLEWMGWINPNSGGTKYAQKFQGRVTITADESTSTAYMELSSLRSEDTAVYYCARSVGEVGATMLGIGVWYWFDPWGQGTLVTVSS
VL: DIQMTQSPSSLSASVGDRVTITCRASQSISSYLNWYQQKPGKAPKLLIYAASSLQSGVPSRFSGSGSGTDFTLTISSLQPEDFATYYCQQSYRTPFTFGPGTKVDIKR
notes: heavy chain entry ends in GSGSG-His6
binding result [8]: binds
binding result [9]: binds

Further lines, results first:

binding result [7]: no binding (tested: 1000 nM)
B3: 001S-A04 mutant VHY8A (Fab, V domains shown)
VH: EVQLVQSGAEVKKPGASVKVSCKASGYTFTSYGISWVRQAPGQGLEWMGWISAYNGNTNYAQKLQGRVTMTTDTSTSTAYMELRSLRSDDTAVYYCASSKEKATYAYGMDVWGQGTTVTVSS
VL: QAVVLQEPSLSVSPGGTVTLTCGLSSGSVSTNYYPSWYQQTPGQAPRTLIYYTNTRSSDVPERFSGSIVGNKAALTITGAQPDDESVYFCLLYLGRGIWVFGGGTKLTVLG

binding result [10]: binds
B5: 029S-E03 (Fab, V domains shown)
VH: QVQLVQSGAEVKKPGASVKVSCKASGYTFTGYYMHWVRQAPGQGLEWMGWINPNSGNTGYAQKFQGRVTMTRDTSTSTVYMELSSLRSEDTAVYYCARSYYGVIDAFDIWGQGTMVTVSS
VL: DIQMTQSPSSLSASVGDRVTITCRASQSISSYLNWYQQKPGKAPKLLIYAASSLQTGVPSRFSGSGSGTDFTLTISSLQPEDFATYYCQQSFRLPLTFGQGTKVEIKR
